Columns and labels:
recombinant cyno TfR1 = target: T1, recombinant cyno TfR1 (cynomolgus monkey (Macaca fascicularis), UniProt Q5RDH6 87-760 (Pongo abelii entry), limits assumed); assay: ELISA, conjugate against unconjugated antibody
T1 construct: Recombinant cynoTfR1 coated on ELISA plates; also called cTfR1; cynomolgus monkey TfR1
T1 chain: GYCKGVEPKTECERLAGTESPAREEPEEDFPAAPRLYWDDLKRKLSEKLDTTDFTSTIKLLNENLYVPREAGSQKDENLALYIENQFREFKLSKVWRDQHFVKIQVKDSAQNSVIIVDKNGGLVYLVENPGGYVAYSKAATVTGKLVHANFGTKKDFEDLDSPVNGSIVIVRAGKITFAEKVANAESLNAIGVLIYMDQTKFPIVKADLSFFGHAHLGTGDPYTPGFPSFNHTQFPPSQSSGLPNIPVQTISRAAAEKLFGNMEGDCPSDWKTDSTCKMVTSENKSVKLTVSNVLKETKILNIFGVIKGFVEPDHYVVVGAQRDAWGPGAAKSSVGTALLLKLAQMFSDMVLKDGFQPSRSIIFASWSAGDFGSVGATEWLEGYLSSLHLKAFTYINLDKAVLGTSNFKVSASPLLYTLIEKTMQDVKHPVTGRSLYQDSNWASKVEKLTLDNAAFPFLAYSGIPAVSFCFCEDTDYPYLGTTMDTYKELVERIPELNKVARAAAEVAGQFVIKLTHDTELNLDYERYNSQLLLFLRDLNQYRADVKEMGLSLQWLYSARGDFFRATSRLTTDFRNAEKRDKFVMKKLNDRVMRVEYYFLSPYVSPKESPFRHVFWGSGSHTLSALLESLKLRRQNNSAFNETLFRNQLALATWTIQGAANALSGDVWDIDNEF

recombinant human TfR1 = target: T2, recombinant human TfR1 (human, UniProt P02786 89-760); assay: ELISA, conjugate against unconjugated antibody
T2 construct: Recombinant huTfR1 coated on ELISA plates or used in the immunoprecipitation; also called huTfR1; hTfR1

B1: anti-TfR (VH of SEQ ID NO: 17 and VL of SEQ ID NO: 18) conjugated to a DMPK-targeting oligonucleotide (control DMPK-ASO) (antibody, V domains shown)
VH: QVQLVQSGAEVKKPGESLKISCKGSGYSFTSYWIGWVRQMPGKGLEWMGIIYPGDSDTRYSPSFQGQVTISADKSISTAYLQWSSLKASDTAMYYCARFPYDSSGYYSFDYWGQGTLVTVSS
VL: not shown
modifications: DMPK-targeting antisense oligonucleotide linked through a cathepsin-cleavable Val-Cit linker to the ε-amine of lysine of the antibody (site and chain not stated)
notes: In the uptake assay several different DMPK-targeting oligonucleotides were used and the conjugates were also labeled with Cypher5e; also called anti-TfR in conjugates with a DMPK targeting oligo; oligonucleotide-conjugated anti-TfR
Q: Which “fold increase of binding upon conjugation (against unconjugated anti-TfR)” value (recombinant cyno TfR1) does the source give for B1 here?
A: Its value is 3 to 6 fold.

Q: What about the “fold increase of binding upon conjugation (against unconjugated anti-TfR)” value (recombinant human TfR1) of the same binder?
A: The value was 3 to 6 fold.

From patent publication US20230103793A1 (DYNE THERAPEUTICS, published 2023)
